From paper PMC7954794, “Protein context shapes the specificity of SH3 domain-mediated interactions in vivo” (Nature Communications, 2021)

Legend:
[1] = system: growth of ABP1 SH3-swapped strains in hygromycin B; settings: cited from earlier work
From the text: Having determined that multiple PPIs require SH3s, we asked whether the latter establish PPI specificity independently from their host proteins by swapping domains (Fig. 2A). Using the second round of genome editing, we individually replaced Abp1 SH3 with the 27 yeast SH3s and 3 human Abp1 orthologs’ SH3s (CTTN, HCLS1, and DBNL, Fig. 2B). The reintroduction of its own SH3 (Abp1SH3 in Abp1) reconstitutes almost perfectly Abp1’s interaction profile (Kendall’s τ = 0.93, Fig. 2B).

[2] = system: Hua2; assay: Deep mutational scanning of Abp1 SH3, Abp1-Hua2 DHFR-PCA (DMS score); format: cell-based, Saccharomyces cerevisiae; settings: Abp1-Hua2 DHFR-PCA; WT = 0; Fig. S3C-D
Outline: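 Sequencing of the genomic SH3 locus before and after two rounds of liquid DHFR-PCA selection (72 h, 30 °C each) gave the score. Mutants covering every codon of the domain were expressed from the native ABP1 locus in diploids carrying DHFR-tagged prey.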

[3] = system: Hua2; assay: Low-throughput liquid DHFR-PCA of selected Abp1 SH3 mutants (Fig. S3F); format: cell-based, Saccharomyces cerevisiae; settings: average
Method: Liquid DHFR-PCA low-throughput experiments were performed to validate the PPIs identified as affected by the SH3 domain deletions in the high-throughput solid DHFR-PCA screen (256 PPIs weaker or lost and 116 PPIs stronger or gained following domain deletions). Mating and the diploid selection were performed as described for the large-scale experiment, with the exception that the plates were in 384 formats. Following the second diploid selection, diploid cells were inoculated in a 96 v-shaped well plate using a robotically manipulated 96 pin tool in a synthetic complete medium with MSG at pH 6.0 with NAT and HPH. After 48 h of growth, optical density (OD) was read using a TECAN Infinite F200 Pro, and dilutions to 1 OD in sterile nanopure water were prepared. Cells were then diluted to 0.1 OD by combining 25 µl of cell suspension at OD = 1 and 225 µl of PCA selection media without agar in a 96-wells plate. Plates were incubated at 30 °C in a TECAN Infinite M Nano and OD was monitored each 15 min for 72 h. […]
Selected non-conserved positions (E6 , E13, N15 and N27) sensitivities to mutations for the Abp1-Hua2 PPI were tested in a low -throughput liquid DHFR -PCA assay. The growth of the mutants in the low -throughput experiment (average of four replicates of the total OD for each growth curve, y axis ) is compared to the mutants DMS score (x axis). […]

Molecule	Hygromycin phenotype, literature [1]	DMS score Hua2 [2]	ave_au (DMS validation) [3]
ABP1: yeast SH3-containing protein; SH3-deleted (D) or gene-deleted (KO) strain (protein, UniProt P15891 2-592, looked up) Actin-binding protein: ALEPIDYTTHSREIDAEYLKIVRGSDPDTTWLIISPNAKKEYEPESTGSSFHDFLQLFDETKVQYGLARVSPPGSDVEKIIIIGWCPDSAPLKTRASFAANFAAVANNLFKGYHVQVTARDEDDLDENELLMKISNAAGARYSIQTSSKQQGKASTPPVKKSFTPSKSPAPVSKKEPVKTPSPAPAAKISSRVNDNNDDDDWNEPELKERDFDQAPLKPNQSSYKPIGKIDLQKVIAEEKAKEDPRLVQKPTAAGSKIDPSSDIANLKNESKLKRDSEFNSFLGTTKPPSMTESSLKNDDDKVIKGFRNEKSPAQLWAERKAKQNSGNAETKAEAPKPEVPEDEPEGEPDVKDLKSKFEGLAASEKEEEEMENKFAPPPKKSEPTIISPKPFSKPQEPVKAEEAEQPKTDYKKIGNPLPGMHIEADNEEEPEENDDDWDDDEDEAAQPPLPSRNVASGAPVQKEEPEQEEIAPSLPSRNSIPAPKQEEAPEQAPEEEIEEEAEEAAPQLPSRSSAAPPPPPRRATPEKKPKENPWATAEYDYDAAEDNELTFVENDKIINIEFVDDDWWLGELEKDGSKGLFPSNYVSLGN	hygromycin resistance		
WT (protein, UniProt P15891 2-592, looked up) Actin-binding protein: ALEPIDYTTHSREIDAEYLKIVRGSDPDTTWLIISPNAKKEYEPESTGSSFHDFLQLFDETKVQYGLARVSPPGSDVEKIIIIGWCPDSAPLKTRASFAANFAAVANNLFKGYHVQVTARDEDDLDENELLMKISNAAGARYSIQTSSKQQGKASTPPVKKSFTPSKSPAPVSKKEPVKTPSPAPAAKISSRVNDNNDDDDWNEPELKERDFDQAPLKPNQSSYKPIGKIDLQKVIAEEKAKEDPRLVQKPTAAGSKIDPSSDIANLKNESKLKRDSEFNSFLGTTKPPSMTESSLKNDDDKVIKGFRNEKSPAQLWAERKAKQNSGNAETKAEAPKPEVPEDEPEGEPDVKDLKSKFEGLAASEKEEEEMENKFAPPPKKSEPTIISPKPFSKPQEPVKAEEAEQPKTDYKKIGNPLPGMHIEADNEEEPEENDDDWDDDEDEAAQPPLPSRNVASGAPVQKEEPEQEEIAPSLPSRNSIPAPKQEEAPEQAPEEEIEEEAEEAAPQLPSRSSAAPPPPPRRATPEKKPKENPWATAEYDYDAAEDNELTFVENDKIINIEFVDDDWWLGELEKDGSKGLFPSNYVSLGN		0	93.0274 au
